Experimental data as given in a protein production outcome set (Wang et al. 2014).

Test: label from the status in PepcDB records
With “MVFNLVVNIIGIVVFIAIAYLFSKQKHAINWRSVGVMLVLEVLLAWFLTGSQVGVDAVKAAADGFTWLVNVSYDGIAFALASWVNVKSMDFVTSSLLPILLIVPLFDILTYIGVLPWIIKWVGRGLAYITGQPKFESFFVVEMMFLGNTEALAVSQLQLKQMKAQRNLTIAMMSMSCVTASILGAYIKMMPGQFILTAVPMNVLNAAIIAAILNPVEVKPEEDTIAKISGSAAVEETTATTETSGSEELANEQVKEAKPAREPFFSFLGDSILGAGRLILIIAANVIAFVALAKLIDKLLGLINSNLSLENIFGVVMFPFAWLLGFNPSDAFQMASYMGTKLVTNEFVVMGEVSSKVNDFAPHFRAVLTVFLTSFANFSTIGMIIGAFKGIVDREKNDLISRNVGYMLLSGILVSLLSAGVVGLFVW” the protein production was “failed”.
In the case of “MVGEVVLVNAYKKFFREYFNFKGKTSRLDFWYVILSLLILSIIPTAILSYLIFGSLMSISGGGNVQEIMEITFLNIPIFIIGIIYLFLFVPVITMTVRRWRDVGLRASGIILIFCLLVLIVILGFIIHLKQNIIIDFLIVISSSMFLITLMPSQICCTNSKNRISQFFFCSKGER”, the protein production is reported as “failed”.
For “MVGIYIGSTAAAAGKNLACMALGLVLGRDGRSVGYMKPYGQRPRMVDDRTGDIDAMLVQEVLGQNADPEVVTPVVEPANIRAMSLRGGNALERVGAAYTALARGRDVMLVGGTGSLFHTGRARGLDGLALVRRLDLRVVLVERYHPHPEGGGIDHDAILYAADVLGDRLAGVLLNDLPESYQRDAEEVLVPYLAEHGVRVLGLVPHDPLLHAIRASDLAVRLGGRLVCGGKGSQRLVEGFLIGTMQVENFMSHFRRHANTATIVGGDRTDLQLVALEGQCPCLVLTGNMPPDELIRQRSEQHGAPVIVVREDTYTVARKMEEILNSQKLRDLVTIRRGADIVAGALDRAALLAQTGIPKGENR”, the protein production was “failed”.
With “MVGLLVEDTIDDQGWNRKAYEGLLNIHSNLDVDVVLEEGVNSEQKAHRRIKELVDGGVNLIFGHGHAFAEYFSTIHNQYPDVHFVSFNGEVKGENITSLHFEGYAMGYFGGMVAASMSETHKVGVIAAFPWQPEVEGFVDGAKYMNESEAFVRYVGEWTDADKALELFQELQKEQVDVFYPAGDGYHVPVVEAIKDQGDFAIGYVGDQADLGGSTILTSTVQHVDDLYVLVAKRFQEGKLESGNLYYDFQDGVVSLGEFSSVVPDEVREQITDAISTYIQTGQFPHEEER” the protein production was “not failed”.
For “MVGLVACSKQSANQQISYRQTAEATLDKGMDNQPEAPYWFPKQLLKWQLSKDKAAKYNTASVPLAKRIDKWQLPTVNKTQDPKMKVVALSIMNSSTSGNAPRGINTFDANVFSNWQYIDQLVYWGGSAGEGLIVPPTADVIDSAHKNGVPVLGTVFFPQVVSGGKLKWLNDFLKQDADGHFPMADKLVAVAKAYGFDGWFINQETDPEVKSFDSASTGKTATSSTSNGLSKKHAQLMQQLIKEYKQKAGSKLDLMWYDSMTKDGKMDWQNALTKENQSYLVDANMKPVADSMFLNFWWTKKRLASQELLKKSHERAEKLGISPYNLFAGIDVQADGTATPVRWNLFANKQHVPYTSLGLYAPDWTHASSDTVDEFQAKEGALWVNDQNDPSRLEHHHHHH”, the protein production was “not failed”.
With “MVGPLGKPIKVKYYGNVVFASDAVCGQAENYATLKAMKEVGNYTISIQTFENAENVYPEEFLAKPVADEHYLTTEDGSVGIKGHYLDIVKELIEKDKVDIIFAGGKLGSLAKLAELTRPYGIPTYATVRQIMVDGLEHHHHHH” the protein production was “not failed”.
In the case of “MVGSVYTLFLYFSIILGVIVGVRTRSFHSSLAVLVFSSTFVAGIKYNNSYIAIISWLALSTLSSYLFHLNVIIKSRKDESVSNVLMGYLLGFFILLTLKLHGAGWILSILASYWVFYILLMFDYSKNRRAYYLLKTLWIIFSWGALIEAFGLQKELLPFLVVYTLIFILWFKRQEYSPT”, the protein production is reported as “failed”.
In the case of “MVGTFLGTGASSGVPMLNCSCKVCTSSYSKNKRLRSSFFLESSSGIKLLIDTGPDIRQQLLREKIDRLDLVLYTHEHYDHIMGFDDIKFYTRCAPLNIYARDTAMAHIRNAFPYNFTSKPSLSGKADIIANVIRDFEPFFFKSLKIVPIPLIHGDIISLGYRVGNLAYLTDVKFIPEASYDYLKNLDLLIIDAMRIKPHPAHLNFSEAFCVIKKINPKISYFTHIAHDIMHEEFDYLEKDNIYLAYDGLKIYILEHHHHHH”, the protein production is reported as “failed”.
For “MVHETDKDPAPAVGPLASAMPRGNFAASLRSPGAKFLMIGFISLVLLVPLLLVWGLTEERASRAREVSARIANGWGGDQVVNGPYLAVPFDVERRREVDGRTIVDRTTEWALVMPETLQVTADLKTEEKKLSIYSLPVYNGALVLKGRFGQGVLQDLARFAGTPRLDNAILVLSIGDITGIRSSAGVRINGGAVLPFDPGMRDMSVIASRALENNSIRSDAGVHRQIDRNLIESGFDFDIAFSLNGSGSFAVAPAGQTTSFTAKADWPHPGFEGLFLPEVKTVTAADFNASWTIPYLARGIDRVVEGPRLPLSNSLMTINLVEPVKFYQVIARTLKYSIGFISLVFLAVFIVELKGGSVVHWIQYVLTGLALIVFYVLLLALAEHTGFTVAYAAASFSTAALIAFYLGSATRSRRNGLALFSVLAVAYGVMYLVLNEDEYALLAGAVISFIAIAATMFATRKVDWSGAGTAANSEFSSRT”, the protein production was “failed”.
For “MVHGLDRRLGLAGRIRPDALVADRCGTLIMLAGERFYRLDPMSGRLERIPCLGGRGDRAGELSGPRAMALGSRNLYVADTDNNRVCVFATVNWQVRRFIGAENPAGEPAAGTGPGEFDRPLDLAVDPCDNLYVLDAGNRRIQRFDYHGEPVPHVPPFGADRLKQPVALALGPAPSPSGGGALVHCLDTGLTAIVTFDDQGRFLGTVGLDDLGFEPAGLAVDADGKWYVSDRERFIYAIRSAGDWSPLEEYEGKALRLFAGPGGEFYALEDGEVARLTRRRRYPPAGSWTGSGPVTGIYTSRSFDTGDGRLFWHRVTLDATVPPKTQVRLSYFIYETGRDPELLPADGEWRSFPSNPADALFERKEGRYLRVRLELISEDRHATPTVVSLRLQFPKQSYLRYLPAVFQDDERGRDFLERFLSLFESVLYDLEREIFTTRRYADPCAVPAGFLPWLASWLALPDADQWLEDGGARLRTLIARANELYRCRGTRGGLAELITLYTGKEPWIVEAFQLDRIRGRSEWRETMRLFGEDPYHFTVLLPPGGAGRTETVKRIVARERPAHTCATVVALENLFRLGGHTYLEVNTNLNQPLFALETSSSLARQTYLADGEKAGQAQVRARQGMDTLFE”, the protein production was “failed”.
In the case of “MVHHGQMHAQPGVGLRPDTPVASGQLPSTSIRSRRSGISKAQRETWERLWPELGLLALPQSPRGTPVDTRAWFGRDAPVVLEIGSGSGTSTLAMAKAEPHVDVIAVDVYRRGLAQLLCAIDKVGSDGINIRLILGNAVDVLQHLIAPDSLCGVRVFFPDPWPKARHHKRRLLQPATMALIADRLVPSGVLHAATDHPGYAEHIAAAGDAEPRLVRVDPDTELLPISVVRPATKYERKAQLGGGAVIELLWKKHGCSERDLKIR”, the protein production is reported as “failed”.
In the case of “MVHMGYKITDKRDLSPIDFFVEVEAPHIAKAWKPGQFVIFILHERGERVPMSVYKAENGRIGMFIRKLGKTSLQLYYEFNVGDEFYSMVGPLGKPIKVKYYGNVVFASDAVCGQAENYATLKAMKEVGNYTISIQTFENAENVYPEEFLAKPVADEHYLTTEDGSVGIKGHYLDIVKELIEKDKVDIIFAGGKLGSLAKLAELTRPYGIPTYATVRQIMVDGTGMCGSCRILYDGEVKFACRDGPVFDAHKVDWEDVLRRANRFLEQERLAKERYLEYLRKKGVI”, the protein production is reported as “failed”.
In the case of “MVHQSEMENYNIGQASIEEVSDPAYKGAKIVVIGVGGGGSNMIKHLVEYGVHQDVTPIATNTDGQHLKNNPAPVKILLGKESTGGLGAGGIPDIGRKAAEESANEIKEAIKDAKLVIISTGLGGGTGTGATPTIVKIAKEVGALTIAIVTKPFKYEGNQKRKRAEEGLKELEQSSDSILVIPNDKILLTMKKNASTTECYREVDDVLVRAVSGISTIITKPGNINVDFADLKSALGFKGFALMGIGEATGEESAKLAVQNAIQSPLLDDASIEGAKSIIVFFEHHPDYPMMAYSQACDFIQDQAHQDVDVKFGQHTSDNIPIDHVRVTIIATGAERNSGGASLESIATPSQPVVKQTRKVGNGEYLKIPTEEELSIPTTMRIQQD”, the protein production is reported as “failed”.
With “MVIGLIATLYRPKEATLYVLLYLLLGAIGLPVFSGGNGGLHTFIGQTGGFLLFFPLRALVTSLIANRKKILIQIFIANFLGEVVLFIGGAIGFIIFTHSLILTTLKLVVLPFVLPDLIKITLTTLFSLLLLKALQSQSYFKIEK” the protein production was “failed”.
